Measurements taken from patent publication US5994105.

Target: commercially available renin (SIGMA)
Settings: scale: % remaining renin activities

“rat acylglucosamine 2-epimerase obtained in example 4 (from UniProt P51607) (enzyme)” gave a Remaining renin activities (%) of 48.
